US20240343803A1 (SHANDONG SIMCERE BIOPHARMACEUTICAL, published 2024)
Changes are numbered by the printed parent chain.

T1: human PVRIG-mFc protein (Acro, PVG-H5253) (human, UniProt Q6DKI7 41-171, limits assumed)
T1 construct: bought protein
T1 sequence (looked up): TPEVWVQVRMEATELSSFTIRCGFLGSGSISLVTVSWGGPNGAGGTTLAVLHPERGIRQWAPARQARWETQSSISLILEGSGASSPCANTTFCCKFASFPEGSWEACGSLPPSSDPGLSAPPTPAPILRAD

T2: Fusion protein of extracellular domain of human TIGIT and His-tag (human TIGIT ECD-his) (human)
T2 chain: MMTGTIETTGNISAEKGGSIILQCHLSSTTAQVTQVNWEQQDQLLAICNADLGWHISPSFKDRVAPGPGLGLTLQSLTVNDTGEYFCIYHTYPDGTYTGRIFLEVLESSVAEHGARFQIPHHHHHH

T3: Fusion protein of extracellular domain of human TIGIT and mouse IgG2a Fc fragment (human TIGIT ECD-mFc) (human)
T3 construct: The entry includes the signal peptide (limits not recoverable) and the mouse IgG2a Fc
T3 chain: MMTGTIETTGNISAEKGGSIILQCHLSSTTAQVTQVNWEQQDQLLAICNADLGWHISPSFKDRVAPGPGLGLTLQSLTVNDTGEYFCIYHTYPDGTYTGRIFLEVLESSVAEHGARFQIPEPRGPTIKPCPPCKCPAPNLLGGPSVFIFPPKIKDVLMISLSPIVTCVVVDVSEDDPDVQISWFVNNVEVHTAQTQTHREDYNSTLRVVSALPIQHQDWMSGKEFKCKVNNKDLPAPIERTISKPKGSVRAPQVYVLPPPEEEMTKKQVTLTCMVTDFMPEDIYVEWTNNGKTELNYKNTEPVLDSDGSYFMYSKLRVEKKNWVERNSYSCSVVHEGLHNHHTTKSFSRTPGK

T4: Full-length human TIGIT on CHO-K1 cells (CHO-K1 human TIGIT) (human, UniProt Q495A1 22-244)
T4 construct: NCBI XP_024309156.1; the entry includes the signal peptide (limits not recoverable); The strain (high, medium, low) is named under assay; also called high expression strain 1D2; medium expression strain 2D10
T4 sequence: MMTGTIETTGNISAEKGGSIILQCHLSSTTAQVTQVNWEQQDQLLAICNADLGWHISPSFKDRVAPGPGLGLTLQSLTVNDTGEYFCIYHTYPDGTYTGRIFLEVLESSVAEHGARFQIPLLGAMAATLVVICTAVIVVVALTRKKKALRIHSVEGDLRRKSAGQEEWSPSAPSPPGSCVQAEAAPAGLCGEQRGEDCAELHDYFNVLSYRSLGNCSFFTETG

B1: PVRIG-A50 (Fc fusion)
chain: EVQLVESGGGLVQPGGSLRLSCAASGFTFSYYDMSWVRQAPGKGLEWVSTINSNGGRTSYVDSVKGRFTISRDNTKNTLYLQMNSLKPEDTAVYYCVEGDPHNFGLENLSLRDFGSWGQGTQVTVSS
notes: heavy chain antibody VHH-hinge-CH2-CH3, human IgG1 constant part; also called PVRIG-50; not shown: human IgG1 hinge-CH2-CH3
B2: PVRIG-A105 (Fc fusion)
chain: EVQLVESGGGLVQAGGSLRLSCAASGRTFDRHTMTWFRQAPGKEREFVATASRIPGDTYYSHSVKGRFTISRDNAKNTVYLQLNNLKPEDTAVYYCAATSAYCSEVDCYEKGSWYDNWGQGIQVTVSS
notes: heavy chain antibody VHH-hinge-CH2-CH3, human IgG1 constant part; not shown: human IgG1 hinge-CH2-CH3
B3: PVRIG-A118 (Fc fusion)
chain: QVQLVESGGGLVQAGGSLRLSCAASETYFDLYVMGWYRQAPGKDRELVATITYTGSIKIVDSVKDRFTISRGDAKNTVSLQMSSLKPEDTAVYFCNADPSGLGRKVYWGQGTQVTVSS
notes: as for B2
B4: TIGIT-070-H1L1 (antibody, V domains shown)
VH: EVQLVQSGAEVKKPGASVKVSCKASGYTFTNYYMHWVRQAPGQRLEWMGRIDPDSGGSKYNEKFKSRVTITVDKSASTAYMELSSLRSEDTAVYYCAREGHYGFYSDYWGQGTTVTVSS
VL: DIQMTQSPSSLSASVGDRVTITCRVSENIYSYLAWYQQKPGKSPKLLIYNAKTLAEGVPSRFSGSGSGTDFTLTISSLQPEDFATYYCQHHYGNPLTFGPGTKVDIK
notes: Humanized anti-TIGIT antibody
B5: TIGIT-002-H4L3 (antibody, V domains shown)
VH: EVQLQESGPGLVKPSETLSLTCAVSGYSITSDSWNWIRQPPGKKLEYIGYISYSGNTYYNPSLKSRVTISRDTSKNQFSLKLSSVTAADTAVYYCARLDFSNYGGAVDYWGQGTTVTVSS
VL: DIVMTQSPDSLAVSLGERATINCKASQNVRTAVAWYQQKPGQSPKLMIYSASYRYTGVPDRFSGSGSGTDFTLTISSLQAEDVAVYYCQQYYTTPWTFGGGTKVEIK
notes: Humanized anti-TIGIT antibody
B6: TIGIT-006-H5L3 (antibody, V domains shown)
VH: B5 VH with I29M, S33Y, N56R, L98G, F100Y, V107M, D108Y, Y109D
VL: DIVMTQSPDSLAVSLGERATINCRASQGVSTTIAWYQQKPGQSPKLLIYSASYRYTGVPRFSGSGSGTDFTLTISSLQAEDVAVYYCQQYYSSPFTFGGGTKVEIK
notes: Humanized anti-TIGIT antibody
B7: TIGIT-005-H2L1d (antibody, V domains shown)
VH: EVQLVQSGAEVKKPGASVKVSCKASGYAFTNYLIEWVRQAPGQRLEWMGVINPGSGGTNYKEKFKGRVTITADKSSSTAYMELSSLRSEDTAVYYCARGEYFFFDYWGQGTTVTVSS
VL: B5 VL with N28H, R30S, T31N, Q38H, M47L, Y91H, T93N, W96H
notes: Humanized anti-TIGIT antibody with NG-site mutation in VL

Target: T1, human PVRIG-mFc protein (Acro, …)
Experiment: FACS competition, PVRIG-mFc binding to CHO-K1-CD112 cells, competitor CD112 on cells

Binder | % AUC to COM701-hIgG4 [%] | % AUC to SRF813-hIgG1 [%] | % IC50 to COM701-hIgG4 [%] | % IC50 to SRF813-hIgG1 [%]
B1 | 104 | 81 | 99.1 | 91.8
B2 | 115 | 84.1 | 99.7 | 97.7
B3 | 110 | 75.6 | 111 | 97.4

Target: T2, Fusion protein of extracellular domain …
Experiment: BIAcore

Binder | Kd [nM] | koff [s⁻¹] | kon [M⁻¹ s⁻¹]
B4 | 0.0583 | 0.000116 | 1.98e+06
B5 | 0.0531 | 0.0003 | 5.65e+06
B6 | 0.0639 | 0.00016 | 2.51e+06
B7 | 0.0896 | 0.000361 | 4.03e+06

Target: T3, Fusion protein of extracellular domain …
Experiment: FACS; blocking of TIGIT ECD-mFc binding to CHO-K1 CD155 cells

Binder | IC50 [nM]
B4 | 0.456
B5 | 0.492
B6 | 0.458
B7 | 0.467

Target: T5, Fusion protein of extracellular domain of cynomolgus monkey TIGIT and mouse IgG2a Fc fragment (cynomolgus … (cynomolgus monkey))
T5 construct: The entry includes the signal peptide (limits not recoverable) and the mouse IgG2a Fc
T5 sequence (chain, as listed by the source limits assumed): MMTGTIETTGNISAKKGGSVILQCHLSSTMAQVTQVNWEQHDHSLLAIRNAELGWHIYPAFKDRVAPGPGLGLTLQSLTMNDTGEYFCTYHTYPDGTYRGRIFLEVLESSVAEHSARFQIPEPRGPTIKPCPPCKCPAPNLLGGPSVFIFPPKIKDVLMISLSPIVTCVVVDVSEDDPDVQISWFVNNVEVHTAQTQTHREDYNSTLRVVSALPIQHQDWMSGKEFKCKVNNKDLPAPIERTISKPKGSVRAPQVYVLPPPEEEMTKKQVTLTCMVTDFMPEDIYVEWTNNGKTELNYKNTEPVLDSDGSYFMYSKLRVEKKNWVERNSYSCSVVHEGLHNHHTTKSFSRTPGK
Experiment: ELISA, cynomolgus monkey TIGIT ECD-mFc

Binder | EC50 [nM]
B4 | 0.0347
B5 | 0.0427
B6 | 0.0406
B7 | 0.0395

Target: T4, Full-length human TIGIT on CHO-K1 cells …
Experiment: cell binding, CHO-K1 human TIGIT high expression strain
In short: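 Binding was measured by flow cytometry after a 60-minute, 4° C incubation of the antibodies with 2×10⁵ CHO-K1 cells displaying full-length human or cynomolgus monkey TIGIT. Antibody titration: 12 points, threefold serial dilution from 80 nM, in 1% BSA-PBS.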

Binder | EC50 [nM]
B4 | 0.026
B5 | 0.0249
B6 | 0.022
B7 | 0.0439
